One data set concerns the target CEBPβ T167D (mouse, UniProt P28033-3 1-275, T167D). As to the kind of experiment: EMSA. In general terms: In EMSA bound probe runs differently from free probe, usually more slowly.
The next data set addresses TFAP-2α (human, UniProt P05549 1-437). Kind of data set: EMSA.

Sequence of CEBPβ T167D (P28033 22-296 T188D): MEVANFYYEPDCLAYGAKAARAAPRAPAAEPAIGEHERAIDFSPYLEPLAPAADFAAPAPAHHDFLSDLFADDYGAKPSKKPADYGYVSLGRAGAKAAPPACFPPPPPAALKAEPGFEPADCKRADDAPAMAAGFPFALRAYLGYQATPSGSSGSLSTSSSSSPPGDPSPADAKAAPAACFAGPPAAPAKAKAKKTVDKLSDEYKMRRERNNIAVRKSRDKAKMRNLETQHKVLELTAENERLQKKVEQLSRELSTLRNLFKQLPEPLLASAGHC
Sequence of TFAP-2α (P05549 whole entry): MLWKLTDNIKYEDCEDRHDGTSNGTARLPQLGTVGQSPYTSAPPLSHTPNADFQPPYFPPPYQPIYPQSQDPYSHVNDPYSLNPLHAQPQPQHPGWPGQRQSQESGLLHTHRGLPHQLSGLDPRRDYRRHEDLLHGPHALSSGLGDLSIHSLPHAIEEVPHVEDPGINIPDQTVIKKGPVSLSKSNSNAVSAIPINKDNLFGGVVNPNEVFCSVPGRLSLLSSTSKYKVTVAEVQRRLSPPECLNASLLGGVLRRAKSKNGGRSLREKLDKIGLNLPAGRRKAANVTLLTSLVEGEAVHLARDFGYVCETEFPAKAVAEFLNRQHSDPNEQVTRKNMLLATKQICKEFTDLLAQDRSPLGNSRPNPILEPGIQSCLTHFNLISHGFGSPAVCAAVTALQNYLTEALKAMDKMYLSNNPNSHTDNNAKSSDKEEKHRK

B1: CX3CR1-DNA (dsDNA)
DNA 1: GATCCGCAGGGCCTCTCGGCTGCTGATCTTCAGCTGGTTGCTGAGAGTTGCAGCATTGCTGAGTCTTAGCAATGGATACTTCCCGATTCCCCTCACAAAAATAGGTCAGTCTGTCTGGCTAGTTCTGTACTTGCAGACACAGGGCATGTGGGGTTCCGGATC
DNA 2: GATCCGGAACCCCACATGCCCTGTGTCTGCAAGTACAGAACTAGCCAGACAGACTGACCTATTTTTGTGAGGGGAATCGGGAAGTATCCATTGCTAAGACTCAGCAATGCTGCAACTCTCAGCAACCAGCTGAAGATCAGCAGCCGAGAGGCCCTGCGGATC
For B1, in the data set with CEBPβ T167D, the binding result was “binds”.

B2: NRCAM-DNA (dsDNA)
DNA 1: GATCCATTACTTCTGAAACAGATGACTCCCAGCAGCTGCTGCCTGTGGCCCACAGGGCTTCCTGCCCTGCATGACAGCTGCACATCACATCCTGTGGTCATACTACTTCAGCCGCTTCTACGGCCAGATACAAAAGTGGGTGGGGAACATAGGCAAGGGATC
DNA 2: GATCCCTTGCCTATGTTCCCCACCCACTTTTGTATCTGGCCGTAGAAGCGGCTGAAGTAGTATGACCACAGGATGTGATGTGCAGCTGTCATGCAGGGCAGGAAGCCCTGTGGGCCACAGGCAGCAGCTGCTGGGAGTCATCTGTTTCAGAAGTAATGGATC
B2: the binding result with TFAP-2α was “binds”.

For the origin of these results see paper PMC6731145.
